The text below walks through data of patent publication US20210179728A1 (OSE IMMUNOTHERAPEUTICS, published 2021).

As usually defined, the EC50 (read off the curve) is the concentration giving half of the maximal effect. In general, Kd refers to the constant that tells how readily two partners part at equilibrium. For orientation: koff means a measure of how fast the partners let go of each other. For orientation: kon means the rate constant with which the complex forms. The term EC50 denotes the concentration at which the effect is half-maximal. The IC50 is the point on the concentration scale where inhibition reaches its midpoint.

Assay [1] addresses T1, CD28Fc (human, UniProt P10747 19-152, limits assumed).
T1 construct: not shown: Fc; not specified
The experiment in a line: ELISA: modified antibody (concentration on the axis) captured on SIRPa-His, then CD28Fc, detected with mouse anti-human CD28 [panel ICOSL]. The source says: (§1) FIG. 24. Ligand binding assay with the different modified anti-SIRPa antibodies by ELISA.
A general note: An ELISA detects its analyte on a solid surface through an enzyme-linked reagent.

In assay [2] the target is T2, recombinant hSIRPa (Sino Biologicals, reference 11612-H08H) (human, UniProt P78324 31-370).
T2 construct: also called SIRPa-His; human SIRPa-His; not shown: His tag (histidine tail)
The experiment in a line: ELISA on immobilized SIRPa-His, peroxidase anti-human IgG, DO 450nm [panel ICOSL]. The method, then:
(§2) Method: For ELISA assay, recombinant hSIRPa (Sino Biologicals, Beijing, China; reference 11612-H08H) was immobilized on plastic at 0.5 μg/ml in carbonate buffer (pH9.2) and different modified anti-SIRPa antibodies were added to measure binding to SIRPa.

Assay [3] addresses T3, 4-1BBFcHis (UniProt Q07011 24-186).
T3 construct: not shown: Fc and His tag; not specified
The experiment in a line: ELISA: modified antibody (concentration on the axis) captured on SIRPa-His, then 4-1BBFcHis, detected with mouse anti-His [panel 4-1BBL].
Source text: as §1

Assay [4] deals with T2, recombinant hSIRPa (Sino Biologicals, …). The experiment in a line: ELISA on immobilized SIRPa-His, peroxidase anti-human IgG, DO 450nm [panel 4-1BBL]. The method, then:
as §2

Assay [5] has the same target. The experiment in a line: ELISA on immobilized SIRPa-His, peroxidase anti-human IgG, DO 450nm [all panels]. Here is the method:
as §2

For assay [6] the target is unchanged. The experiment in a line: SPR (Biacore); SIRPa-His immobilized on CM5 chip, antibody injected. The method, then:
FIG. 2. Affinity analysis by Biacore of anti-SIRP antibodies on human SIRPa recombinant protein. SIRPa-His recombinant protein was immobilized onto a CM5 chip at 5 μg/ml (500 RU) and the indicated antibodies were added at different concentration.
Method: Recombinant hSIRPa (Sino Biologicals, Beijing, China; reference 11612-H08H) was immobilized into a CM5 sensor chip (GeHealthcare; France) at 5 μg/ml (500 RU) and antibodies were applied at different concentrations with a flow rate of 40 μl/min. Analysis was performed with a BIAcore 3000 (Biacore, GeHealthcare).
In general terms: In SPR one partner is held on a chip, and binding of the other changes the refractive index at the surface.

Assay [7] shares this target. The experiment in a line: ELISA on immobilized hSIRPa-His, anti-human IgG detection, first experiment; first experiment. The method, then:
Method: The binding activity of the anti-SIRPa antibodies was assessed by ELISA.

The target is the same in assay [8]. The experiment in a line: competition ELISA on immobilized SIRPa-His; competitor biotinylated CD47-Fc at 6 ug/ml, streptavidin-peroxidase [second experiment table]. Here is the method:
(§3) Method: For competitive ELISA assay, recombinant hSIRPa (Sino Biologicals, Beijing, China; reference 11612-H08H) was immobilized on plastic at 0.5 μg/ml in carbonate buffer (pH9.2).

In assay [9] the target is T4, recombinant hSIRPb-His (Antibodies-online, reference ABIN3077231) (human, UniProt Q5TFQ8 30-371).
T4 construct: also called SIRPb-His (Blitz); not shown: His tag
The experiment in a line: BLI (Blitz); SIRPb-His on Ni-NTA biosensor, antibody at 20 ug/ml [B, table A]. The method, then: FIG. 7. (A) Affinity analysis by Blitz of anti-SIRP antibodies on human SIRPb recombinant protein. SIRPb-His recombinant protein was immobilized onto a NINTA biosensor and the indicated antibodies were added at 20 μg/ml. […] (B) Binding analysis of anti-SIRP antibodies (human SIRPb-His coating and anti-human kappa detection).
Method: This method was performed with a Blitz (Forte Bio; USA; reference C22-2 No 61010-1). Recombinant hSIRPb-His (Antibodies-online; USA; reference ABIN3077231) was immobilized at 10 μg/ml by histidine tail into a Ni-NTA biosensor (Forte Bio; USA; reference 18-0029) for 30 seconds. Then, an anti-SIRPa antibody was associated at 20 μg/mL for 120 seconds. The dissociation of anti-SIRPa antibody was made in kinetics buffer for 120 seconds. Analysis of data was made with the Blitz pro 1.2 software, which calculated association constant (ka) and dissociation constant (kd) and determined the affinity constant KD […].

In assay [10] the target is T2, recombinant hSIRPa (Sino Biologicals, …). The experiment in a line: competition ELISA on coated SIRPa-His; competitor biotinylated CD47-Fc at 6 ug/ml, streptavidin-peroxidase [panel 4-1BBL]. The method, then: as §3
In assay [11] the target is T5, PDL1Fc (human, UniProt Q9NZQ7 19-238).
T5 construct: not shown: Fc; not specified
The experiment in a line: ELISA: modified antibody (concentration on the axis) captured on SIRPa-His, then PDL1Fc, detected with mouse anti-human PDL1 [panel PD1].
Source text: as §1

Assay [12] concerns the target T2, recombinant hSIRPa (Sino Biologicals, …). The experiment in a line: ELISA on immobilized SIRPa-His, peroxidase anti-human IgG, DO 450nm [panel PD1]. The method, then:
as §2

For assay [13] the target is unchanged. The experiment in a line: competition ELISA on coated SIRPa-His; competitor biotinylated CD47-Fc at 6 ug/ml, streptavidin-peroxidase [panel PD1]. Here is the method:
as §3

The target is the same in assay [14]. The experiment in a line: competition ELISA on coated SIRPa-His; competitor biotinylated CD47-Fc at 6 ug/ml, streptavidin-peroxidase [panel PDL1]. The method, then: as §3
The target of assay [15] is T6, PD1His (human, UniProt Q15116 25-170, limits assumed).
T6 construct: not shown: His tag
The experiment in a line: ELISA: modified antibody (concentration on the axis) captured on SIRPa-His, then PD1His, detected with mouse anti-His [panel PDL1].
Source text: as §1

B1: modified anti-SIRPa HEFLB antibody with ECD of ICOSL on the light chain (antibody, human IgG4 S228P, kappa)
heavy: not shown
light: DVVMTQSPLSLPVTLGQPASISCRSSQSLVHSYGNTYLYWFQQRPGQSPRLLIYRVSNRFSGVPDRFSGSGSGTDFTLKISRVEAEDVGVYYCFQGTHVPYTFGGGTKVEIKRTVAAPSVFIFPPSDEQLKSGTASVVCLLNNFYPREAKVQWKVDNALQSGNSQESVTEQDSKDSTYSLSSTLTLSKADYEKHKVYACEVTHQGLSSPVTKSFNRGECGGGGSGGGGSGGGGSDTQEKEVRAMVGSDVELSCACPEGSRFDLNDVYVYWQTSESKTVVTYHIPQNSSLENVDSRYRNRALMSPAGMLRGDFSLRLFNVTPQDEQKFHCLVLSQSLGFQEVLSVEVTLHVAANFSVPVVSAPHSPSQDELTFTCTSINGYPRPNVYWINKTDNSLLDQALQNDTVFLNMRGLYDVVSVLRIARTPSVNIGCCIENVLLQQNLTVGSQTGNDIGERDKITENPVSTGEKNAAT
notes: as m32, ECD of ICOSL; also called VH+VLprot (ICOSL); HEF + LB-ICOSL
With B1, the binding result in assay [1] is recorded as “binds”. Also, in [2], the “EC50 (read off the curve)” value was roughly 0.006 µg/mL.

B2: modified anti-SIRPa HEFLB antibody with ECD of 4-1BBL on the light chain (antibody, human IgG4 S228P, kappa)
heavy: not shown
light: DVVMTQSPLSLPVTLGQPASISCRSSQSLVHSYGNTYLYWFQQRPGQSPRLLIYRVSNRFSGVPDRFSGSGSGTDFTLKISRVEAEDVGVYYCFQGTHVPYTFGGGTKVEIKRTVAAPSVFIFPPSDEQLKSGTASVVCLLNNFYPREAKVQWKVDNALQSGNSQESVTEQDSKDSTYSLSSTLTLSKADYEKHKVYACEVTHQGLSSPVTKSFNRGECGGGGSGGGGSGGGGSREGPELSPDDPAGLLDLRQGMFAQLVAQNVLLIDGPLSWYSDPGLAGVSLTGGLSYKEDTKELVVAKAGVYYVFFQLELRRVVAGEGSGSVSLALHLQPLRSAAGAAALALTVDLPPASSEARNSAFGFQGRLLHLSAGQRLGVHLHTEARARHAWQLTQGATVLGLFRVTPEIPAGLPSPRSE
notes: as m32, ECD of 4-1BBL; also called VH+VLprot (4-1BBL); HEF + LB-4-1BBL
With B2, the “EC50 (read off the curve)” value in assay [3] is roughly 0.2 µg/mL; in [4] it was roughly 0.007 µg/mL.

B3: HEFLB (antibody, human IgG4 S228P, kappa)
heavy: not shown
light: DVVMTQSPLSLPVTLGQPASISCRSSQSLVHSYGNTYLYWFQQRPGQSPRLLIYRVSNRFSGVPDRFSGSGSGTDFTLKISRVEAEDVGVYYCFQGTHVPYTFGGGTKVEIKRTVAAPSVFIFPPSDEQLKSGTASVVCLLNNFYPREAKVQWKVDNALQSGNSQESVTEQDSKDSTYSLSSTLTLSKADYEKHKVYACEVTHQGLSSPVTKSFNRGEC
notes: humanized 18D5 variant; IgG4m (S228P) / kappa; also called anti-SIRPa HEFLB
With B3, the “EC50 (read off the curve)” value in [5] is roughly 0.01 µg/mL. In assay [6], the Kd came out at 0.289 nM, the koff came out at 0.000189 s⁻¹ and the kon came to 654000 M⁻¹ s⁻¹. In assay [7], the concentration giving a half-maximal response (EC50) was found to be 0.0044 µg/mL. Also, the IC50 in [8] came out at 0.186 µg/mL. In assay [9], the Kd came out at 86.9 nM, the koff stood at 0.00171 s⁻¹ and the kon turned out to be 19400 M⁻¹ s⁻¹.

B4: modified anti-SIRPa HEFLB antibody with ECD of 4-1BBL on the heavy chain (antibody, human IgG4 S228P, kappa)
heavy: not shown
light: B3 light
notes: as m25, ECD of 4-1BBL; also called VHprot+VL (4-1BBL); VH-4-1BBL
As to B4, in assay [10], the “IC50 (read off the curve)” value was roughly 0.3 µg/mL.

B5: modified anti-SIRPa HEFLB antibody with ECD of PD1 on the heavy chain (antibody, human IgG4 S228P, kappa)
heavy: not shown
light: B3 light
notes: also called VHprot+VL (PD1); HEF-PD1 + LB
Regarding B5, the binding result in [11] was “binds”. In assay [12], the “EC50 (read off the curve)” value was roughly 0.008 µg/mL. Further, the “IC50 (read off the curve)” value in assay [13] is roughly 0.2 µg/mL.

B6: modified anti-SIRPa HEFLB antibody with ECD of PDL1 on the heavy chain (antibody, human IgG4 S228P, kappa)
heavy: not shown
light: B3 light
notes: as m25, ECD of PDL1; also called VHprot+VL (PDL1); VH-PDL1
In the case of B6, the “IC50 (read off the curve)” value in [14] is roughly 0.3 µg/mL. Besides, the binding result in [15] is reported as “binds”.
